Reference: patent US20250188161A1 (UNIVERSITE CATHOLIQUE DE LOUVAIN, published 2025)
Where “and” joins values, the source holds several entries; their conditions need not be identical. Equal values may be shown once. Blank lines part the entries; values can stand above or below the binder they belong to.

Key:
[1] = target: T1, mouse latent TGF-β3 on transfected 293T cells (mouse, UniProt P17125 24-410); experiment: flow cytometry, 293T cells transfected with GARP and HA-TGF-β3, GAM-FITC as secondary reagent; anti-HA staining gives only a low tail
T1 construct: whole, on cells; also called murine latent TGF-β3; HA-tagged TGF-β3
T1 sequence (looked up): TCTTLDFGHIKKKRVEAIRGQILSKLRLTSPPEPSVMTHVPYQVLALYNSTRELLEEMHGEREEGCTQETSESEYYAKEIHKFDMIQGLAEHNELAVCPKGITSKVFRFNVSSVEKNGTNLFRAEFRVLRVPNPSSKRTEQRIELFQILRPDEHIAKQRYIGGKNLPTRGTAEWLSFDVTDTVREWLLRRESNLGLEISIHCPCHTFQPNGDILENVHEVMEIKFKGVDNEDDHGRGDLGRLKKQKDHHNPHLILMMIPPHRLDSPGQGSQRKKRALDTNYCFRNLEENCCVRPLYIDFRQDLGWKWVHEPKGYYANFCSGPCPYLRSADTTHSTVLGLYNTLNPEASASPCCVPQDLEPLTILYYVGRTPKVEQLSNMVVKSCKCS
Text: (§1) Flow cytometry was used to ensure that LMT-12 binds specifically to mouse latent TGF-β1 and not to mouse latent TGF-β2 and mouse latent TGF-β3. Briefly, 293T cells were transfected with plasmids encoding HA-tagged TGF-β1, β2, or β3, with a plasmid encoding GARP. They were then stained with the indicated concentrations of LMT-12 mIgG1 or anti-HA mIgG1 antibody and thereafter with goat anti-mouse coupled to FITC (GAM-FITC) as secondary reagent. Using flow cytometry, histograms were gated on live cells as determined with a viability dye (Bioscience, cat. 65-0865-14).

[2] = target: T2, mouse latent TGF-β2 on transfected 293T cells (mouse, UniProt P27090 21-414); experiment: flow cytometry, 293T cells transfected with GARP and HA-TGF-β2, GAM-FITC as secondary reagent; expression shown by anti-HA staining
T2 construct: whole, on cells; also called murine latent TGF-β2; HA-tagged TGF-β2
T2 sequence (looked up): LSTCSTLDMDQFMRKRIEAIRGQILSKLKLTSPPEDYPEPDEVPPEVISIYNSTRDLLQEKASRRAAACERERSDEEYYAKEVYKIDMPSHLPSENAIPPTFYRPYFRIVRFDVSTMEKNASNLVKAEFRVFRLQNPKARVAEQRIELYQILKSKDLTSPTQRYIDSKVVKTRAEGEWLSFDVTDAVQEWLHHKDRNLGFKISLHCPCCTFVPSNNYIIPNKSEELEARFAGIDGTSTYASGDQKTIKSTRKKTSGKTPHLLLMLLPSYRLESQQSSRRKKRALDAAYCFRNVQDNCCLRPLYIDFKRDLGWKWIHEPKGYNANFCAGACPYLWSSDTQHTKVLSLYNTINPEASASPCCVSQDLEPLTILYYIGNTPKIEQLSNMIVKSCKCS
Text: as §1

[3] = target: T3, mouse latent TGF-β1 on transfected HEK-293T cells (mouse, UniProt P04202 30-278; P04202 279-390); experiment: flow cytometry, HEK-293T cells co-transfected with mGarp and the HA-tagged TGF-β1 construct
T3 construct: also called mouse TGF-β1; mTGF-β1

[4] = target: T4, G213A; experiment: Ala-scan, flow cytometry, HEK-293T cells with GARP and the HA-tagged Ala-mutant; residual binding in % of WT
T4 construct: co-expressed with GARP; also called mouse TGF-β1 G213A single Ala-mutant on HEK-293T cells
Text: (§2) To perform “Ala-scan” analyses, we co-transfected plasmids encoding mouse or human GARP and the single Ala-mutants of mouse or human TGF-β1 in HEK-293T cells, and analyzed binding by TGF-β1-activating and non-activating mAbs using flow cytometry (FIG. 3C).

[5] = target: T5, G216A; experiment: as above
T5 construct: co-expressed with GARP; also called mouse TGF-β1 G216A single Ala-mutant on HEK-293T cells
Text: as §2

[6] = target: T6, G202A; experiment: as above
T6 construct: co-expressed with GARP; also called mouse TGF-β1 G202A single Ala-mutant on HEK-293T cells
Text: as §2

[7] = target: T7, T201A; experiment: as above
T7 construct: co-expressed with GARP; also called mouse TGF-β1 T201A single Ala-mutant on HEK-293T cells
Text: as §2

[8] = target: T8, V204A; experiment: as above
T8 construct: co-expressed with GARP; also called mouse TGF-β1 V204A single Ala-mutant on HEK-293T cells
Text: as §2

[9] = target: T9, S220A; experiment: as above
T9 construct: co-expressed with GARP; also called mouse TGF-β1 S220A single Ala-mutant on HEK-293T cells
Text: as §2

[10] = target: T10, W207A; experiment: as above
T10 construct: co-expressed with GARP; also called mouse TGF-β1 W207A single Ala-mutant on HEK-293T cells
Text: as §2

[11] = target: T11, Q206A; experiment: as above
T11 construct: co-expressed with GARP; also called mouse TGF-β1 Q206A single Ala-mutant on HEK-293T cells
Text: as §2

[12] = target: T12, R218A; experiment: as above
T12 construct: co-expressed with GARP; also called mouse TGF-β1 R218A single Ala-mutant on HEK-293T cells
Text: as §2

[13] = target: T13, F217A; experiment: as above
T13 construct: co-expressed with GARP; also called mouse TGF-β1 F217A single Ala-mutant on HEK-293T cells
Text: as §2

[14] = target: T14, Q210A; experiment: as above
T14 construct: co-expressed with GARP; also called mouse TGF-β1 Q210A single Ala-mutant on HEK-293T cells
Text: as §2

[15] = target: T15, Q215A; experiment: as above
T15 construct: co-expressed with GARP; also called mouse TGF-β1 Q215A single Ala-mutant on HEK-293T cells
Text: as §2

[16] = target: T16, N209A; experiment: as above
T16 construct: co-expressed with GARP; also called mouse TGF-β1 N209A single Ala-mutant on HEK-293T cells
Text: as §2

[17] = target: T17, F219A; experiment: as above
T17 construct: co-expressed with GARP; also called mouse TGF-β1 F219A single Ala-mutant on HEK-293T cells
Text: as §2

[18] = target: T18, I214A; experiment: as above
T18 construct: co-expressed with GARP; also called mouse TGF-β1 I214A single Ala-mutant on HEK-293T cells
Text: as §2

[19] = target: T19, V203A; experiment: as above
T19 construct: co-expressed with GARP; also called mouse TGF-β1 V203A single Ala-mutant on HEK-293T cells
Text: as §2

[20] = target: T20, G211A; experiment: as above
T20 construct: co-expressed with GARP; also called mouse TGF-β1 G211A single Ala-mutant on HEK-293T cells
Text: as §2

[21] = target: T21, R205A; experiment: as above
T21 construct: co-expressed with GARP; also called mouse TGF-β1 R205A single Ala-mutant on HEK-293T cells
Text: as §2

[22] = target: mouse TGF-β1 D212A single Ala-mutant on HEK-293T cells (mouse, UniProt P04202 30-278; P04202 279-390); experiment: Ala-scan, flow cytometry on HEK-293T cells with mouse GARP and HA-tagged single Ala-mutant
Text: as §2

[23] = target: mouse TGF-β1 L208A single Ala-mutant on HEK-293T cells (mouse, UniProt P04202 30-278; P04202 279-390); experiment: as above
Text: as §2

[24] = target: T22, mouse latent TGF-β1 (mouse, UniProt P04202 30-278; P04202 279-390); experiment: SPR (Biacore 3000), mouse latent TGFβ1 amine-coupled on CM5 (about 500 RU), antibody at 3-100 nM
T22 construct: signal peptide 1-29 left out; also called murine latent TGF-β1 (immobilised protein)
Experimental: A CM5 chip was immobilized with approximately 500RU human latent TGFβ1 and mouse latent TGFβ1 in sodium acetate buffer pH4.5 (GE Healthcare, #BR100350) using amine coupling and consuming HBS-EP buffer. The flow was set to 30 μl/min with the “kinject” injection mode and a regeneration injection of 10 mM glycine pH1.5.

[25] = target: T3, mouse latent TGF-β1 on transfected …; experiment: cell-based or functional assay
[26] = target: T23, human latent TGF-β1 (human, UniProt P01137 30-278; P01137 279-390); experiment: SPR (Biacore 3000), human latent TGFβ1 amine-coupled on CM5, antibody injected
T23 construct: signal peptide 1-29 left out; also called human latent TGF-β1 (immobilised / coated protein)

T3 sequence (P04202 30-278, chain 1 of 2): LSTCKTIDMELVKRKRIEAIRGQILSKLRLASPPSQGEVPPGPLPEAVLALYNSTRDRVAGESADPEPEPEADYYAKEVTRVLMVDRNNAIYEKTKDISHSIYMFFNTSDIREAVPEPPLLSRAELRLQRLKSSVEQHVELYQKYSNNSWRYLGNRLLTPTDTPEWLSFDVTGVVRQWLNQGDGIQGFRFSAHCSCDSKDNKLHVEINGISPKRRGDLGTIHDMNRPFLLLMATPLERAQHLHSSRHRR
T3 sequence (P04202 279-390, chain 2 of 2): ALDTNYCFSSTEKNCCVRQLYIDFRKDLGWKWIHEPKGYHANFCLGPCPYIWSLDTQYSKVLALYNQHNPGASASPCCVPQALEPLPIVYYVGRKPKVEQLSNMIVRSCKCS
T22 sequence (P04202 30-278, chain 1 of 2): as the sequence (P04202 30-278, chain 1 of 2) above
T22 sequence (P04202 279-390, chain 2 of 2): as the sequence (P04202 279-390, chain 2 of 2) above
T5 sequence (HA-tagged latent TGF-β1, as listed by the source G216A G216A limits assumed): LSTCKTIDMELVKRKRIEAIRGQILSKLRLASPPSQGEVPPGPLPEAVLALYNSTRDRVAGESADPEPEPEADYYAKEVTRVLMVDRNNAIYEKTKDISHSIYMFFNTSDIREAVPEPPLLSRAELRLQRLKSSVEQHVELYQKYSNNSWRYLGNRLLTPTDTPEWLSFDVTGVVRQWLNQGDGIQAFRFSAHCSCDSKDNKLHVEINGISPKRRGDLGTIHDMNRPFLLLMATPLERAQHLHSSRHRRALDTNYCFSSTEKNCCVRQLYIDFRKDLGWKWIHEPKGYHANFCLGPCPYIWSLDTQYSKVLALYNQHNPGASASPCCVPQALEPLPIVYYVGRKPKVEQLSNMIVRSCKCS
T13 sequence (HA-tagged latent TGF-β1, as listed by the source F217A F217A limits assumed): as the sequence (HA-tagged latent TGF-β1, as listed by the source G216A G216A limits assumed) above, with A187G, F188A counted along it
T6 sequence (HA-tagged latent TGF-β1, as listed by the source G202A G202A limits assumed): as the sequence (HA-tagged latent TGF-β1, as listed by the source G216A G216A limits assumed) above, with G173A, A187G counted along it
T17 sequence (HA-tagged latent TGF-β1, as listed by the source F219A F219A limits assumed): as the sequence (HA-tagged latent TGF-β1, as listed by the source G216A G216A limits assumed) above, with A187G, F190A counted along it
T19 sequence (HA-tagged latent TGF-β1, as listed by the source V203A V203A limits assumed): as the sequence (HA-tagged latent TGF-β1, as listed by the source G216A G216A limits assumed) above, with V174A, A187G counted along it
T11 sequence (HA-tagged latent TGF-β1, as listed by the source Q206A Q206A limits assumed): as the sequence (HA-tagged latent TGF-β1, as listed by the source G216A G216A limits assumed) above, with Q177A, A187G counted along it
T7 sequence (HA-tagged latent TGF-β1, as listed by the source T201A T201A limits assumed): as the sequence (HA-tagged latent TGF-β1, as listed by the source G216A G216A limits assumed) above, with T172A, A187G counted along it
T9 sequence (HA-tagged latent TGF-β1, as listed by the source S220A S220A limits assumed): as the sequence (HA-tagged latent TGF-β1, as listed by the source G216A G216A limits assumed) above, with A187G, S191A counted along it
T18 sequence (HA-tagged latent TGF-β1, as listed by the source I214A I214A limits assumed): as the sequence (HA-tagged latent TGF-β1, as listed by the source G216A G216A limits assumed) above, with I185A, A187G counted along it
T4 sequence (HA-tagged latent TGF-β1, as listed by the source G213A G213A limits assumed): as the sequence (HA-tagged latent TGF-β1, as listed by the source G216A G216A limits assumed) above, with G184A, A187G counted along it
T21 sequence (HA-tagged latent TGF-β1, as listed by the source R205A R205A limits assumed): as the sequence (HA-tagged latent TGF-β1, as listed by the source G216A G216A limits assumed) above, with R176A, A187G counted along it

binding result [1]: no binding (tested: 20.00 µg/ml)
binding result [2]: no binding (tested: 20.00 µg/ml)
B1: LMT-12 mIgG1 (antibody, V domains shown)
VH: EVQLVESGGGLVQPGGSLRLSCAASGFTFSSYYMYWVRQAPGKGLEWVSGTSIGGGSTWYADSVKGRFTISRDNAKNTLYLQMNNLKSEDTAVYYCAKDLNSRSYKGMGDWGQGTQVTVSS
VL: QPALTQLSSMSGSPGQTVTITCTGSSSNIGGGYYLNWYQQLPGAAPKLVIYNANNRASGVPDRFSGSKSGNLASLTITGLQAEDEAVYFCGCYDSSLSSVVFGGGTHLTVL
notes: also called mAb LMT-12

% binding relative to WT TGF-β1 (100 %) [3]: 100%
binding result [4]: binds
binding result [5]: binds
binding result [6]: binds
binding result [7]: binds
binding result [8]: binds
binding result [9]: binds
binding result [10]: binds
binding result [11]: binds
binding result [12]: binds
binding result [13]: binds
binding result [14]: binds
binding result [15]: binds
binding result [16]: binds
binding result [17]: binds
binding result [18]: binds
binding result [19]: binds
binding result [20]: binds
binding result [21]: binds
binding result [22]: no binding
binding result [23]: no binding
Amplitude R0 (RU) [24]: 241 RU
Kd [24]: 633 pM
koff [24]: 0.000718 s⁻¹
kon [24]: 1.14e+06 M⁻¹ s⁻¹
EC50, TGF-β1 luciferase reporter assay in HEK-293T cells expressing GARP:TGF-β1 [25]: 76 ng/ml and 0.5 nM
B2: LMT-2 (6D12) (antibody, V domains shown)
VH: EVQLVESGGGLVQPGGSLRLSCAASGFTFSNYGVHWVRQAPGKGLEWVSHISAAGISRYYADAVKGRFTMSRDNGKNTLYLQMNGLKSEDTAVYYCAKDRIRSSYEYDSWGQGTQVTVSS
VL: LPVLTQLSSMSGSPGQTVTITCTGSSSNIGGGYYLSWYQQLPGTAPKLLIYNANNRASGVPNRFSGSKSGNLASLTITGLQAEDEADYYCGCYDSSLSTGYVFGGGTKLTVL
notes: also called LMT-2 (hIgG1)
binding result [26]: no binding (tested: six concentrations, 3 nM to 100 nM)
